Experimental data taken from patent EP4669337B1 (ATOPIA THERAPEUTICS SA, dated 2025).

B1: human TGFβ receptor 1 (receptor, UniProt P36897 34-126, looked up)
chain: LQCFCHLCTKDNFTCVTDGLCFVSVTETTDKVIHNSMCIAEIDLIPRDRPFVCAPSSKTGSVTTTYCCNQDHCNKIELPTTVKSSPGLGPVEL
notes: Immobilised on a CM5 sensor by direct amine coupling; also called TGFβ R1; TGF-bR1
B2: polypeptide of SEQ ID NO:31 (a specific polypeptide of SEQ ID NO: 10, s1m1 family VacA-derived polypeptide) (other)
chain: AFFTTVIIPAIVGGIATGTAVGTVSGLLGWGLKQAEEANKTPDKPDKVWRIQAGKGFNEFPNKEYDLYKSLLSSKIDGGWDWGNAATHYWIKGGQWNKLEVDMKDAVGTYKLSGLRNFTGGDLDVNMQKATLRLGQFNGNSFTSYKDSADRTTRVDFNAKNILIDNFLEINNRVGSGAGRKASSTVLTLQASEGITSSKNAEISLYDGATLNLASNSVKLNGNVWMGRLQYVGAYLAPSYSTINTSKVTGEVNFNHLTVGDHNAAQAGIIASNKTHIGTLDLWQSAGLNIIAPPGGKDTVVNIDRINTKADGTIKVGGFKASLTTNAAHLNIGKGGVNLSNQASGRTLLVENLTGNITVDGPLRVNNQVGGYALAGSSANFEFKAGVDTKNGTATFNNDISLGRFVNLKVDAHTANFKGIDTGNGGFNTLDFSGVTNKVNINKLITASTNVAVKNFNINELIVKTNGVSVGEYTHFSEDIGSQSRINTVRLETGTRSIFSGGVKFKSGEKLVIDEFYYSPWNYFDARNIKNVEITRKFASSTPENPWGTSKLMFNNLTLGQNAVMDYSQFSNLTIQGDFINNQGTINYLVRGGKVATLNVGNAAAMMFNNDIDSATGFYKPLIKINSAQDLIKNTEHVLLKAKIIGYGNVSTGTNGISNVNLEEQFKERLALYNNNNRMDTCVVRNTDDIKACGMAIGNQSMVNNPDNYKYLIGKAWKNIGISKTANGSKISVYYLGNSTPTENGGNTTNLPTNTTNNARFASYA
notes: Engineered polypeptide derived from the H. pylori VacA s1m1 family, expressed in CHO or HEK cells and purified

Assays:
[1] = target: B2; test: SPR (Biacore T200), TGFβ R1 amine-coupled on CM5, equilibrium model
[2] = target: B2; test: SPR (Biacore T200), TGFβ R1 amine-coupled on CM5, multi-cycle, two-state kinetic model
human TGFβ receptor 2 [3] = target: T1, human TGFβ receptor 2 (human, UniProt P37173 23-166, limits assumed); test: SPR (Biacore T200), TGFβ R2 amine-coupled on CM5, multi-cycle, two-state kinetic model
T1 construct: Immobilised on a CM5 sensor by direct amine coupling; also called TGFβ R2; TGFB-R2

human TGFβ receptor 2 [4] = target: T1, human TGFβ receptor 2; test: SPR (Biacore T200), TGFβ R2 amine-coupled on CM5, equilibrium model

T1 sequence (P37173 23-166 limits assumed): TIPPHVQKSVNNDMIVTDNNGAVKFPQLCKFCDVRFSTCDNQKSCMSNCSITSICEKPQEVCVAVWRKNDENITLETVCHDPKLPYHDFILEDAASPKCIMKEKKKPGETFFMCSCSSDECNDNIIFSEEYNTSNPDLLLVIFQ

| Binder | Kd [1] | Kd [2] | koff [2] | kon [2] | Kd (human TGFβ receptor 2 [3]) | koff (human TGFβ receptor 2 [3]) | kon (human TGFβ receptor 2 [3]) | Kd (human TGFβ receptor 2 [4]) |
| --- | --- | --- | --- | --- | --- | --- | --- | --- |
| B1 | 2.9 µM | 2.31 µM | 0.603 s⁻¹ | 220000 M⁻¹ s⁻¹ |  |  |  |  |
| B2 |  |  |  |  | 5.07 µM | 6670 s⁻¹ | 1.08e+09 M⁻¹ s⁻¹ | 5.61 µM |
